{"source": "patent US6406896", "key": {"[1]": {"tested_on": "Tnp T171S plus one T171S", "experiment": "cell_activity", "conditions": "mating out, dam+ strain"}, "[2]": {"tested_on": "sC7 E344K minus one R8C,E58V,A157T,T171S,D217A,L372Q", "experiment": "cell_activity", "conditions": "mating out, dam+ strain"}, "[3]": {"tested_on": "sC7 D217A minus one R8C,E58V,A157T,T171S,E344K,L372Q", "experiment": "cell_activity", "conditions": "mating out, dam+ strain"}, "[4]": {"tested_on": "sC7 L372Q minus one R8C,E58V,A157T,T171S,D217A,E344K", "experiment": "cell_activity", "conditions": "mating out, dam+ strain"}, "[5]": {"tested_on": "Tnp D217A plus one D217A", "experiment": "cell_activity", "conditions": "mating out, dam+ strain"}, "[6]": {"target": "Tn5 transposase wild-type (Tnp WT) (UniProt Q46731)", "experiment": "cell_activity", "conditions": "mating out"}, "[7]": {"tested_on": "Tnp E344K plus one E344K", "experiment": "cell_activity", "conditions": "mating out, dam+ strain"}, "[8]": {"tested_on": "sC7 R8C minus one E58V,A157T,T171S,D217A,E344K,L372Q", "experiment": "cell_activity", "conditions": "mating out, dam+ strain"}, "[9]": {"tested_on": "Tnp sC7v2.0 (sC7(157,171,217)) R8C,E58V,E344K,L372Q", "experiment": "cell_activity", "conditions": "mating out, dam+ strain"}, "[10]": {"tested_on": "sC7 A157T minus one R8C,E58V,T171S,D217A,E344K,L372Q", "experiment": "cell_activity", "conditions": "mating out, dam+ strain"}, "[11]": {"tested_on": "Tnp sC7(157,171) R8C,E58V,D217A,E344K,L372Q", "experiment": "cell_activity", "conditions": "mating out, dam+ strain"}, "[12]": {"tested_on": "sC7 T171S minus one R8C,E58V,A157T,D217A,E344K,L372Q", "experiment": "cell_activity", "conditions": "mating out, dam+ strain"}, "[13]": {"tested_on": "sC7 E58V minus one R8C,A157T,T171S,D217A,E344K,L372Q", "experiment": "cell_activity", "conditions": "mating out, dam+ strain"}, "[14]": {"tested_on": "Tnp R8C plus one R8C", "experiment": "cell_activity", "conditions": "mating out, dam+ strain"}, "[15]": {"tested_on": "Tnp A157T plus one A157T", "experiment": "cell_activity", "conditions": "mating out, dam+ strain"}, "[16]": {"tested_on": "Tnp E58V plus one E58V", "experiment": "cell_activity", "conditions": "mating out, dam+ strain"}, "[17]": {"target": "Tnp sC7 R8C,E58V,A157T,T171S,D217A,E344K,L372Q (UniProt Q46731)", "experiment": "cell_activity", "conditions": "mating out"}, "[18]": {"tested_on": "Tnp sC7(171,217) R8C,E58V,A157T,E344K,L372Q", "experiment": "cell_activity", "conditions": "mating out, dam+ strain"}, "[19]": {"tested_on": "Tnp sC7(157,217) R8C,E58V,T171S,E344K,L372Q", "experiment": "cell_activity", "conditions": "mating out, dam+ strain"}, "[20]": {"tested_on": "Tnp L372Q plus one L372Q", "experiment": "cell_activity", "conditions": "mating out, dam+ strain"}, "[21]": {"tested_on": "Tnp sC7v2.0 purified R8C,E58V,E344K,L372Q", "experiment": "cleavage_in_vitro", "conditions": "dam methylation of adenines in the two GATC sites (four methyl groups per end); in vitro transposition, 3 h, 37C, 280 nM Tnp, 35.5 nM pGT4"}, "[22]": {"conditions": "dam methylation of adenines in the two GATC sites (four methyl groups per end)"}, "[23]": {"conditions": "dam methylation of adenines in the two GATC sites (four methyl groups per end), dam+ strain"}}, "data": [{"substance": "Tn5 outside end (OE)", "values": [{"measurement": "activity (transposition frequency)", "setting": "[1]", "value": "1.8e-06"}, {"measurement": "activity (transposition frequency)", "setting": "[2]", "value": "1.7e-05"}, {"measurement": "activity (transposition frequency)", "setting": "[3]", "value": "4.5e-06"}, {"measurement": "activity (transposition frequency)", "setting": "[4]", "value": "2.8e-07"}, {"measurement": "activity (transposition frequency)", "setting": "[5]", "value": "3.4e-06"}, {"measurement": "activity (transposition frequency)", "setting": "[6]; dam- strain, 3.1e-6 in dam+ strain", "value": "6.5e-05"}, {"measurement": "activity (transposition frequency)", "setting": "[7]", "value": "6.8e-07"}, {"measurement": "activity (transposition frequency)", "setting": "[8]", "value": "6e-06"}, {"measurement": "activity (transposition frequency)", "setting": "[9]", "value": "7.1e-06"}, {"measurement": "activity (transposition frequency)", "setting": "[10]", "value": "4e-06"}, {"measurement": "activity (transposition frequency)", "setting": "[11]", "value": "7e-06"}, {"measurement": "activity (transposition frequency)", "setting": "[12]", "value": "2.6e-06"}, {"measurement": "activity (transposition frequency)", "setting": "[13]", "value": "1.1e-06"}, {"measurement": "activity (transposition frequency)", "setting": "[14]", "value": "4e-07"}, {"measurement": "activity (transposition frequency)", "setting": "[15]", "value": "6.6e-07"}, {"measurement": "activity (transposition frequency)", "setting": "[16]", "value": "1.4e-06"}, {"measurement": "activity (transposition frequency)", "setting": "[17]; dam- strain, 3.3e-6 in dam+ strain", "value": "3.7e-05"}, {"measurement": "activity (transposition frequency)", "setting": "[18]", "value": "1.18e-05"}, {"measurement": "activity (transposition frequency)", "setting": "[19]", "value": "2.25e-05"}, {"measurement": "activity (transposition frequency)", "setting": "[20]", "value": "1.1e-05"}]}, {"substance": "Tn5 inside end (IE), unmethylated", "values": [{"measurement": "activity (transposition frequency)", "setting": "[6]; dam- strain", "value": "6.5e-05"}, {"measurement": "activity (transposition frequency)", "setting": "[17]; dam- strain", "value": 0.0018}]}, {"substance": "Dam-methylated Tn5 inside end (IEME)", "values": [{"measurement": "activity (transposition frequency)", "setting": "[1]; [22]", "value": "5.6e-09"}, {"measurement": "activity (transposition frequency)", "setting": "[2]; [22]", "value": 0.00055}, {"measurement": "activity (transposition frequency)", "setting": "[3]; [22]", "value": 0.0037}, {"measurement": "activity (transposition frequency)", "setting": "[4]; [22]", "value": 0.00026}, {"measurement": "activity (transposition frequency)", "setting": "[6]; [23]", "value": "1e-08"}, {"measurement": "activity (transposition frequency)", "setting": "[7]; dam methylation of adenines in the two GATC sites (four methyl groups per end), 4.3-fold over WT", "value": "4.3e-08"}, {"measurement": "activity (transposition frequency)", "setting": "[8]; [22]", "value": 0.0031}, {"measurement": "activity (transposition frequency)", "setting": "[9]; [22]", "value": 0.0074}, {"measurement": "activity (transposition frequency)", "setting": "[10]; [22]", "value": 0.0031}, {"measurement": "activity (transposition frequency)", "setting": "[11]; [22]", "value": 0.0065}, {"measurement": "activity (transposition frequency)", "setting": "[12]; [22]", "value": 0.0028}, {"measurement": "activity (transposition frequency)", "setting": "[13]; [22]", "value": "1.8e-06"}, {"measurement": "activity (transposition frequency)", "setting": "[16]; dam methylation of adenines in the two GATC sites (four methyl groups per end), 40000-fold over WT", "value": 0.0004}, {"measurement": "activity (transposition frequency)", "setting": "[17]; [23]", "value": 0.0026}, {"measurement": "activity (transposition frequency)", "setting": "[18]; [22]", "value": 0.0058}, {"measurement": "activity (transposition frequency)", "setting": "[19]; [22]", "value": 0.0084}, {"measurement": "activity (transposition frequency)", "setting": "[20]; dam methylation of adenines in the two GATC sites (four methyl groups per end), 8.9-fold over WT", "value": "8.9e-08"}, {"measurement": "activity (% supercoiled plasmid converted)", "setting": "[21]", "value": 66}]}]}
